Laboratory results taken from patent US20230000834A1, “PHYSIOLOGICALLY ACTIVE SUBSTANCE BOUND TO BIOTIN MOIETY, AND COMPOSITION FOR ORAL ADMINISTRATION INCLUDING SAME” (priority 2019, published 2023).
Non-standard residues stand in square brackets, D forms with d. No end group written: not given here. biotin moiety B2 = not defined here; biotin moiety B3 = not defined here; Aib = CC(C)(N)C(=O)O

How the values were obtained:
[1] = in vivo; details: SD, rat
Protocol: The specimens were administered by subcutaneous injection and orally in amounts of 20 μg/kg to experimental rats (SD rat) with a body weight of approximately 200 g, then blood serum was isolated and enzyme-linked immunosorbent assays were carried out to measure change in blood drug concentration over time. Blood samples were collected from the jugular vein. A polypeptide having the amino acid sequence of SEQ. ID. No. 6 was used as the control.

[2] = test system: blood glucose; assay: Intraperitoneal glucose tolerance test after oral administration, Embodiments 5 and 6; format: in vivo, mice (C57BL/6); details: C57BL/6 mice; 500 μg/kg oral at -20 minutes; glucose 2 g/kg intraperitoneal
Protocol: To confirm glucose tolerance, Embodiments 5 and 6 were orally administered to mice, and blood glucose regulation efficacy was measured through an intraperitoneal glucose tolerance test.
To measure peritoneal glucose tolerance in an animal model, 100 μl of specimen (500 μg/kg, SEQ. ID. No. 2) was orally administered at −20 minutes to 9-week-old male mice (C57BL/6), followed by intraperitoneal injection of 200 μl glucose (2 g/kg) and observation of blood glucose changes in blood collected from the tail vein at −20, 0, 20, 40, 60, 90 and 120 minutes.
FIG. 6 is a graph illustrating blood glucose change after administering glucose to each specimen.

Compound	bioavailability [1]	glucose regulating ability (blood glucose change, FIG. 6) [2]
CC[C@H](C)[C@H](NC(=O)[C@H](CCC(=O)O)NC(=O)[C@H](CO)NC(=O)[C@@H](NC(=O)[C@@H](N)CO)C(C)C)C(=O)N[C@@H](CCC(N)=O)C(=O)N[C@@H](CC(C)C)C(=O)N[C@@H](CCSC)C(=O)N[C@@H](Cc1c[nH]cn1)C(=O)N[C@@H](CC(N)=O)C(=O)N[C@@H](CC(C)C)C(=O)NCC(=O)N[C@@H](CCCCN)C(=O)N[C@@H](Cc1c[nH]cn1)C(=O)N[C@@H](CC(C)C)C(=O)N[C@@H](CC(N)=O)C(=O)N[C@@H](CO)C(=O)N[C@@H](CCSC)C(=O)N[C@@H](CCC(=O)O)C(=O)N[C@@H](CCCNC(=N)N)C(=O)N[C@H](C(=O)N[C@@H](CCC(=O)O)C(=O)N[C@@H](Cc1c[nH]c2ccccc12)C(=O)N[C@@H](CC(C)C)C(=O)N[C@@H](CCCNC(=N)N)C(=O)N[C@@H](CCCCN)C(=O)N[C@@H](CCCCN)C(=O)N[C@@H](CC(C)C)C(=O)N[C@@H](CCC(N)=O)C(=O)N[C@@H](CC(=O)O)C(=O)N[C@H](C(=O)N[C@@H](Cc1c[nH]cn1)C(=O)N[C@@H](CC(N)=O)C(=O)N[C@@H](Cc1ccccc1)C(=O)N[C@@H](CSC1CC(=O)N(CCC(=O)NC(CCCCNC(=O)CCCCC2SCC3NC(=O)NC32)C(=O)NC(CCCCNC(=O)CCCCC2SCC3NC(=O)NC32)C(N)=O)C1=O)C(=O)O)C(C)C)C(C)C (stereo partly shown) [Embodiment 8]	7.8%	
CC[C@H](C)[C@H](NC(=O)[C@H](CCC(=O)O)NC(=O)[C@H](CO)NC(=O)[C@@H](NC(=O)[C@@H](N)CO)C(C)C)C(=O)N[C@@H](CCC(N)=O)C(=O)N[C@@H](CC(C)C)C(=O)N[C@@H](CCSC)C(=O)N[C@@H](Cc1c[nH]cn1)C(=O)N[C@@H](CC(N)=O)C(=O)N[C@@H](CC(C)C)C(=O)NCC(=O)N[C@@H](CCCCN)C(=O)N[C@@H](Cc1c[nH]cn1)C(=O)N[C@@H](CC(C)C)C(=O)N[C@@H](CC(N)=O)C(=O)N[C@@H](CO)C(=O)N[C@@H](CCSC)C(=O)N[C@@H](CCC(=O)O)C(=O)N[C@@H](CCCNC(=N)N)C(=O)N[C@H](C(=O)N[C@@H](CCC(=O)O)C(=O)N[C@@H](Cc1c[nH]c2ccccc12)C(=O)N[C@@H](CC(C)C)C(=O)N[C@@H](CCCNC(=N)N)C(=O)N[C@@H](CCCCN)C(=O)N[C@@H](CCCCN)C(=O)N[C@@H](CC(C)C)C(=O)N[C@@H](CCC(N)=O)C(=O)N[C@@H](CC(=O)O)C(=O)N[C@H](C(=O)N[C@@H](Cc1c[nH]cn1)C(=O)N[C@@H](CC(N)=O)C(=O)N[C@@H](Cc1ccccc1)C(=O)N[C@@H](CSC1CC(=O)N(CCC(=O)NC(CCCCNC(=O)CCCCC2SCC3NC(=O)NC32)C(=O)NC(CCCCNC(=O)CCCCC2SCC3NC(=O)NC32)C(=O)NC(CCCCNC(=O)CCCCC2SCC3NC(=O)NC32)C(N)=O)C1=O)C(=O)O)C(C)C)C(C)C (stereo partly shown) [Embodiment 9]	4.9%	
Embodiment 5: polypeptide of SEQ. ID. No. 8 bonded to biotin moiety B2 at C30 (H[Aib]QGTFTSDYSKYLDEQAAKEFVQWLMNTC(biotin moiety B2); reading uncertain)		glucose regulating ability
Embodiment 6: polypeptide of SEQ. ID. No. 8 bonded to biotin moiety B3 at C30 (H[Aib]QGTFTSDYSKYLDEQAAKEFVQWLMNTC(biotin moiety B3); reading uncertain)		glucose regulating ability
